Columns and labels:
NB4 = assay: PI single stained flow cytometry, apoptosis of NB4; type: cell-based
Procedure: Fluorescence microscope, model Leica ASLMD, K562, NB4. rLZ-8 is classified into high, medium and low three-dose groups respectively, now we prepare them with IMDM culture medium containing 2% FCS into the preparation of 2.5 μg·ml^−1, 0.5 μg/ml, 0.1 μg·ml^−1. […] (PI) 50 μg·ml ^−1.
Establish K562 as the normal control group, rLZ-8 low-dose group (0.1 μg·ml^−1), rLZ-8 medium dose group (0.5 μg·ml^−1), rLZ-8 high-dose group, (2.5 μg·ml^−1); set NB4 as the normal control group, rLZ-8 low-dose group (0.1 μg·ml^−1), rLZ-8 medium dose group (0.5 μg·ml^−1), rLZ-8 high-dose group, (2.5 μg·ml^−1).
Mix K562 and NB4 cells into 24-orifice plate respectively, and supply rLZ-8 in different concentrates, 1 ml/orifice, set 3-orifice multipunches for each group. Put them in 37° C., 5% CO2 incubator for 24 h, collect the cells of each concentrate, PBS washes twice and regulates the cell density to 1×10^6/ml, 70% ice ethanol fixation, adjusts to −20° C. and stays overnight. Wash the cells with PBS twice after fixing the cells, add PI (end density 50 μg·ml^−1) for room temperature and lucifuged hatching 10 min, 1000 r·min^−1 centrifuge 5 min, clear supernatant with disposable 400μ. IPBS re-suspension precipitation. And test on computer in 1 h.

S180 cells = assay: Mouse transplanted S180 subcutaneous tumor inhibition; type: in vivo, Mice; details: 10 days
Procedure: Mice, 18-22 g, males and females were equally divided, provided by Jilin University Laboratory Animal Center; Mice Ehrlich ascites cells strain, provided by our laboratory S180; Cyclophosphamide (CTX), offered by Jiangsu Hengrui Medicine Co., Ltd., lot number: 06101921. S180 ascites tumors and solid tumors in experiment group were divided into normal control group, negative control group, positive control group, rLZ-8 low-dose treatment group (0.25 mg·kg^−1), rLZ-8 medium-dose treatment group (0.5 mg·kg^−1), rLZ-8 high-dose treatment group (1 mg·kg^−1). For each group 10 mice.
Select well-growing S180 cells, dilute appropriately with sterile saline into a tumor cell suspension, cell counts for 10^7·L^−1, under the right armpit of each mouse inoculated subcutaneously 0.2 ml (except for the normal control group). Treatment after 24 h of vaccination. Normal control group and negative control group were given saline 0.2 ml·each^−l·d^−1, intraperitoneal injection; positive control group were given cyclophosphamide 20 mg·kg^−1, intraperitoneal injection. rLZ-8 treatment groups were given doses of tail venous injection respectively, 0.2 ml·each^−1·d^−1, in 10 consecutive days. Draw blood from orbital venous plexus 10 days before and after medication respectively, sent to Jilin University No. 1 Hospital clinical laboratory to test and analyze the number of WBC. Kill all mice the next day of drug withdrawal at cervical dislocation, dissect anatomically and take out the tumors, weigh tumors, calculate the inhibition rate using the following equation:
Inhibition rate (%)=(average tumore weight of the control group−average tumore weight of the experiment group)/average tumor weight of the control group×100%

WBC = assay: Cyclophosphamide low-leucocyte mice model, WBC; type: in vivo; set-up: unit not given here
Procedure: rLZ-8 preparation of sterile saline. Divide them into 5 μg·kg^−1, 2.5 μg√kg^−1, 1.25 μg·kg^−1, 0.62 μg·kg^−1 dose groups.
Genlei™ Scimax™ [Recombinant human granulocyte colony-stimulating factor injection (rhG-CSF)], production lot: 20060403; 75 μg/vial is prepared with sterile normal saline into the preparation of 3.2 μg·kg^−1, 0.2 ml/vial.
Cyclophosphamide (CP) for injection (the production lot number 050216; 200 mg/vial) is prepared with sterile normal saline into the preparation of 12.5 mg·kg^−1, 0.2 ml/vial.
Normal control group, several protein dose groups, positive control group (Genlei™ Scimax™).
Excluding the normal control group (given same normal saline), each group of mice were given tail vein injection of cyclophosphamide, […], 0.2 ml/vial, for 3 consecutive days. On 3rd day, rat tail venous blood sampling, sent to Jilin University First Hospital laboratory, cell analyze the number of WBC. After successful modeling, they were given to the above groups respective dose of rLZ-8 and positive drugs (Genlei™ Scimax™) treatment, the normal control group and CP groups were given same normal saline, on the 3rd, 7th and 14th day of the treatment to draw venous blood from mice tail respectively, sent to Jilin University First Hospital testing the numbers of WBC. Compare WBC changes before and after the treatment for analysis of drug efficacy.

[1] = test system: systemic allergic reaction caused by BSA; assay: Systemic allergic reaction in mice caused by BSA; details: for Death number/total / Sensitization number/total: sensitization BSA (i.p.)
Procedure: Prepare rLZ-8 700 μg/ml^−1 with saline and Aluminium hydroxide with PBS buffer. Male mice, 15 vial, were divided into 4 groups: two rLZ-8 dosage groups, positive group, normal control group. […] Positive reaction standard: tic or death. Negative reaction standard: normal.

[2] = rLZ-8 0.25 mg·kg^−1 tail venous injection
[3] = rLZ-8 0.5 mg·kg^−1 tail venous injection
[4] = rLZ-8 1 mg·kg^−1 tail venous injection
[5] = rLZ-8 dose 2, shock BSA-rLZ-8 (i.v.)

B1: rLZ-8: Recombinant Ganoderma Lucidum Immune Regulatory Protein expressed in Pichia pastoris (protein, UniProt P14945 2-111, looked up)
Immunomodulatory protein Ling …: SDTALIFRLAWDVKKLSFDYTPNWGRGNPNNFIDTVTFPKVLTDKAYTYRVAVSGRNLGVKPSYAVESDGSQKVNFLEYNSGYGIADTNTIQVFVVDPDTNNDFIIAQWN
**Q.** Which results are given for B1?
**A.** Apoptosis rate (NB4; NB4, rLZ-8 0.1 μg·ml^−1, 24 h): 9.23%; Apoptosis rate (NB4; NB4, rLZ-8 0.5 μg·ml^−1, 24 h): 27.51%; Apoptosis rate (NB4; NB4, rLZ-8 2.5 μg·ml^−1, 24 h): 38.60%; Inhibition rate (%) (S180 cells; [2]): 16.8%; Tumor weight (S180 cells; [2]): 0.84 ± 0.03 g; Inhibition rate (%) (S180 cells; [3]): 25.7%; Tumor weight (S180 cells; [3]): 0.75 ± 0.02 g; Inhibition rate (%) (S180 cells; [4]): 45.5%; Tumor weight (S180 cells; [4]): 0.55 ± 0.03 g; WBC, 3rdday of medication (WBC; rLZ-8 0.62 μg·kg−1): 6.4 ± 0.41; WBC, 7thday of medication (WBC; rLZ-8 0.62 μg·kg−1): 27.2 ± 0.10; WBC, 14thday of medication (WBC; rLZ-8 0.62 μg·kg−1): 13.9 ± 0.17; WBC, 3rdday of medication (WBC; rLZ-8 1.25 μg·kg−1): 8.1 ± 0.17; WBC, 7thday of medication (WBC; rLZ-8 1.25 μg·kg−1): 19.7 ± 0.17; WBC, 14thday of medication (WBC; rLZ-8 1.25 μg·kg−1): 13.9 ± 0.14; WBC, 3rdday of medication (WBC; rLZ-8 2.5 μg·kg−1): 6.6 ± 0.77; WBC, 7thday of medication (WBC; rLZ-8 2.5 μg·kg−1): 22.8 ± 0.15; WBC, 14thday of medication (WBC; rLZ-8 2.5 μg·kg−1): 15.2 ± 0.11; WBC, 3rdday of medication (WBC; rLZ-8 5 μg·kg−1): 5.0 ± 0.12; WBC, 7thday of medication (WBC; rLZ-8 5 μg·kg−1): 20.3 ± 0.11; WBC, 14thday of medication (WBC; rLZ-8 5 μg·kg−1): 14.3 ± 0.21; systemic allergic reaction caused by BSA (in words) ([1]; mouse, in vivo): could inhibit systemic allergic reaction; Death number/total ([1]; rLZ-8 dose 1, shock BSA (i.v.)): 0/10; Sensitization number/total ([1]; rLZ-8 dose 1, shock BSA (i.v.)): 5/10; Death number/total [1, 5]: 0/10; Sensitization number/total [1, 5]: 9/10

Reference: patent US20110009597A1, “RECOMBINANT GANODERMA LUCIDIUM IMMUNOMODULATORY PROTEIN (rLZ-8) AND USES THEREOF” (priority 2008, published 2011)
